In patent publication US20220267441A1 (VOR BIOPHARMA, published 2022):
Positions count from the first letter of the chain named. Numbers in names are those of the source. Like-named read-outs stand apart in the source and are kept apart here.

T1: human CD45 on live cells (REH-1 cells, primary human PBMCs) (human, UniProt P08575 26-1306)
T1 construct: Endogenous CD45
T1 sequence: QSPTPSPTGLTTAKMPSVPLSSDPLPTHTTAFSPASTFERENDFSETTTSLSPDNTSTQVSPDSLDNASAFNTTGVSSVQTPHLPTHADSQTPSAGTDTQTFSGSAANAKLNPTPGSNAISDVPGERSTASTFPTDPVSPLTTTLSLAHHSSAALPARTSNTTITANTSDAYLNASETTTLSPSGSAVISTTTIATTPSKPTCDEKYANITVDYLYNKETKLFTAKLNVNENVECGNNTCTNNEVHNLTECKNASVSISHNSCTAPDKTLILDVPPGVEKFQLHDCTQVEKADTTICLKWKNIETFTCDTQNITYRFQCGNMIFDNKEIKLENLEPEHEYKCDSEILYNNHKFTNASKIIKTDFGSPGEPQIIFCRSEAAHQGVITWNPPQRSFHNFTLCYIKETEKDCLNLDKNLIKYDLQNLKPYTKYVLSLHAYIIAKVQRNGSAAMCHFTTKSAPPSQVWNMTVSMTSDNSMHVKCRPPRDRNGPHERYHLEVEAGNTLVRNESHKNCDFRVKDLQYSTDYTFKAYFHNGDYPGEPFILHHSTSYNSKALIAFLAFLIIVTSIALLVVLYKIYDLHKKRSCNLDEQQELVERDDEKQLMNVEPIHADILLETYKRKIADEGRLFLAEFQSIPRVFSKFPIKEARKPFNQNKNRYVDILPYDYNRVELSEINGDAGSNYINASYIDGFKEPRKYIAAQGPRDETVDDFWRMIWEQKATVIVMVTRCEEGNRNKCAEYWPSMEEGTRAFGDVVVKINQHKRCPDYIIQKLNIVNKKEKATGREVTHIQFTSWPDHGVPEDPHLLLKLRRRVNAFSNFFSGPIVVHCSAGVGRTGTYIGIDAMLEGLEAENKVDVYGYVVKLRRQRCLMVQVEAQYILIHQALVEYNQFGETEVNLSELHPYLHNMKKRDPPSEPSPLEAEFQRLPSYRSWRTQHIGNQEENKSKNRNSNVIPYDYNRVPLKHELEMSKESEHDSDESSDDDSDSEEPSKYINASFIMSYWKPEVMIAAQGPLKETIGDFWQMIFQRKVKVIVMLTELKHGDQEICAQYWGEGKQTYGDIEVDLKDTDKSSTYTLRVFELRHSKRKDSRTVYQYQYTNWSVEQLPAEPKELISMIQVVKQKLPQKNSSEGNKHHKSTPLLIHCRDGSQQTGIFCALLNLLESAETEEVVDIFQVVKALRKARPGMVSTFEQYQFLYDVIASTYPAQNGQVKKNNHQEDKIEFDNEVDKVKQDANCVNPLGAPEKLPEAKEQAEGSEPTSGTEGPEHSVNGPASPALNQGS

T2: cynomolgus CD45 on live cells (primary cynomolgus PBMCs) (cynomolgus monkey)
T2 construct: Endogenous CD45 on PBMCs; also called cyno CD45; Cyno PBMC
T2 chain: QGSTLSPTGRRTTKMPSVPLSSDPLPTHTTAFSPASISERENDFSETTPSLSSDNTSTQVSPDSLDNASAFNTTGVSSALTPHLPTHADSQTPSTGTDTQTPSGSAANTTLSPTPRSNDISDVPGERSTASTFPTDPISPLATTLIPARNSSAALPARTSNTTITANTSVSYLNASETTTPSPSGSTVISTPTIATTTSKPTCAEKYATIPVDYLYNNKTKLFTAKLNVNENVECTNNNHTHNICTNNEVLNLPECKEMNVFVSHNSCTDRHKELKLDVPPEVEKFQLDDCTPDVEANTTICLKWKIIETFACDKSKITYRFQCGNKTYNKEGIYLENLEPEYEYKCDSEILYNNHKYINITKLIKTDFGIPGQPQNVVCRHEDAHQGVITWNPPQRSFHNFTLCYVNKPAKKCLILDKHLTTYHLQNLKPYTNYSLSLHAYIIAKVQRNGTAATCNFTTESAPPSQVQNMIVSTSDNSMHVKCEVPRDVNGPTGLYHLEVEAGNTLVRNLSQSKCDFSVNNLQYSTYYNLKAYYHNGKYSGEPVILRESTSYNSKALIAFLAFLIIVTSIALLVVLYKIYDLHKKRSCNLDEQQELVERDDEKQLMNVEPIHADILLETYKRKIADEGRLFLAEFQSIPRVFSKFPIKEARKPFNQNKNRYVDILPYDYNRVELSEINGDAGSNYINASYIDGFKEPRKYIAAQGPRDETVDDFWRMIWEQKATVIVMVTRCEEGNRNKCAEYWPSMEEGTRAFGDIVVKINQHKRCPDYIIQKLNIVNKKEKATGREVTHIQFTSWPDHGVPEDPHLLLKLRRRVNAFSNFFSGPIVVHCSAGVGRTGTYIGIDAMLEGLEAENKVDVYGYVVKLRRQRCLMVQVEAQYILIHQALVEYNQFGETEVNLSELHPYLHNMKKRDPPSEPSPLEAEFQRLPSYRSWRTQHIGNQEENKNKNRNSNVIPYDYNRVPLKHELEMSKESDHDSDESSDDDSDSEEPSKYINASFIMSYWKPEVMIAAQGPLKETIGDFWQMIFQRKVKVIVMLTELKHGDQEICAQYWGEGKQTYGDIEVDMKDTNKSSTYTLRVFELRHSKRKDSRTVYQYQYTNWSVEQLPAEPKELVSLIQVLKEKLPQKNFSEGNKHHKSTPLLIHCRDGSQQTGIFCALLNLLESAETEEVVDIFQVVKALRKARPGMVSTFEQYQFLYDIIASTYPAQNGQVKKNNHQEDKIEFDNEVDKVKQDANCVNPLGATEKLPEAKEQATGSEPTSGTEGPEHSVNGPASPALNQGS

T3: purified human CD45 ectodomain (human CD45RABC antigen) (human, UniProt P08575 26-577)
T3 construct: also called hCD45
T3 sequence: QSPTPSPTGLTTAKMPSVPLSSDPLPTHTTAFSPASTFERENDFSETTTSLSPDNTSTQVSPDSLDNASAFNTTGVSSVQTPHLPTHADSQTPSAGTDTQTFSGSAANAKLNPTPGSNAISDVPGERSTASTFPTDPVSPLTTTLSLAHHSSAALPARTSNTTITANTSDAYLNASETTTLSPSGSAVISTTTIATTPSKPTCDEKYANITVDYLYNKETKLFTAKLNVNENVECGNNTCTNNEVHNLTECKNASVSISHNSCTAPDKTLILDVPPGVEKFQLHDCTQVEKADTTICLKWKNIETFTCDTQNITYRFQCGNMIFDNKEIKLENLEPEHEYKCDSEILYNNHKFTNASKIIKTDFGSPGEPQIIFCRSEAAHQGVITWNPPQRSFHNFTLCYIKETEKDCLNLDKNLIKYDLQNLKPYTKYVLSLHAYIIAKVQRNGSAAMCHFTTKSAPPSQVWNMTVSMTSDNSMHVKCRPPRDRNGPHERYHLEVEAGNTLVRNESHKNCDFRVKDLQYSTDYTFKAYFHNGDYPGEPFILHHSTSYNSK

B1: AbB_D265C_LALA_H435A (antibody, human IgG1, kappa, L234A L235A, V domains shown)
VH: EVQLVESGGGLVQPGGSLRLSCAASGFTFTNFWMAWIRQAPGKGLEWVASISSSGGSIYYPDSVKDRFTISRDNSKNTLYLQMNSLRAEDTAVYYCVKFHHYSGGGDAWGQGTLVTVSS
VL: DIQMTQSPSSLSASVGDRVTITCKASQNINKYLDWYQQKPGKAPKLLIHYTNNLHTGIPSRFSGSGSGTDYTLTISSLQPEDFATYYCLQHSSRWTFGGGTKVEIKR
notes: also called Fc variant of AbB
B2: Antibody 1 (Ab1) (antibody, V domains shown)
VH: QVQLVESGGGLVKPGGSLRLSCAASGFTFSSYSMNWVRQAPGKGLEWVSYISSSSSTIYYADSVKGRFTISRDNAKNSLYLQMNSLRAEDTAVYYCARGGQYYYDSSRYGEVAFDIWGQGTMVTVSS
VL: not shown
notes: Fully human IgG from yeast display; also called Parent 1; parent clone Ab1
B3: Ab5 (D265C LALA H435A) (antibody, human IgG1, kappa, L234A L235A, V domains shown)
VH: B2 VH with Q1E, K13Q, S30E, S31A, S53L, S55G, S56A, Y59H, D105T, R108D
VL: DIVMTQSPLSLPVTPGEPASISCRSSQSLVSSGYNYLDWYLQKPGQSPQLLIYFGSSRASGVPDRFSGSGSGTDFTLKISRVEAEDVGVYYCMQRRRTPWSFGGGTKVEIKR
B4: Ab7 (D265C LALA H435A) (antibody, human IgG1, kappa, L234A L235A, V domains shown)
VH: B2 VH with S30G, S31G, S53I, S55G, S56A, Y59T, R108D
VL: DIVMTQSPLSLPVTPGEPASISCRSSQSLVSSGYNYLDWYLQKPGQSPQLLIYFGSSRASGVPDRFSGSGSGTDFTLKISRVEAEDVGVYYCMQRRRTPPFTFGGGTKVEIKR
B5: Antibody C (AbC) (antibody, IgG1, V domains shown)
VH: EVQLVESGGGLVQPGGSLRLSCAASGFTFNNYWMTWVRQAPGKGLEWVSSISSSGGSIYYPDSVKDRFTISRDNAKNSLYLQMNSLRAEDMAVYYCARLYYYDGGGDAWGQGTLVTVSS
VL: GIQMTQSPSSLSASVGDRVTITCKASQDINKYLDWYQQKPGKAPKLLIYNTNNLHTGIPSRFSGSGSGTDYTLTISSLQPEDFATYYCLQHISRWTFGGGTKVEIK
notes: also called humanized clone AbC
B6: AbC_D265C_LALA_H435A (antibody, human IgG1, kappa, L234A L235A, V domains shown)
VH: B5 VH
VL: B1 VL with D1G, N28D, H49Y, Y50N, S92I
notes: also called Fc variant of AbC

Key:
[1] = target: T1, human CD45 on live cells (REH-1 cells, …); assay: flow cytometry on human PBMCs, overnight 37 C, AF488 anti-human IgG
Experimental: (§1) To this end, primary human or cynomolgus (cyno) peripheral blood mononuclear cells (PBMCs) in cell culture media were incubated with titrated doses of the anti-CD45 antibodies overnight at 37° C. […] Bound anti-CD45 antibody was detected with fluorescently labeled AF488 anti-human IgG secondary antibody using flow cytometry. IC50s were determined by fitting the data using [sequence] PRISM. An Isotype IgG was used as a control.

[2] = target: T2, cynomolgus CD45 on live cells (primary …); assay: flow cytometry on cynomolgus PBMCs, overnight 37 C, AF488 anti-human IgG
Experimental: as §1

[3] = target: T2, cynomolgus CD45 on live cells (primary …); assay: flow cytometry on PBMCs; cyno EC50 against human EC50
Experimental: as §1

[4] = target: T3, purified human CD45 ectodomain (human …); assay: BLI (Octet Red96), IgG on anti-human Fc sensor, 100 nM CD45 ectodomain, 1:1 fit
Experimental: Antibody binding studies were performed at 25° C. in 1× PBS supplemented with 0.1% w/v bovine serum albumin with a Pall ForteBio Octet Red96 using biolayer interferometry (BLI).
The apparent monovalent affinity (KD), apparent association rate (KON), and apparent dissociation rate (KOFF) were determined by local full fitting with a 1:1 binding model as calculated by ForteBio data analysis software version 10 of each IgG to purified human, cynomolgus or rhesus CD45 ectodomain.

[5] = target: T2, cynomolgus CD45 on live cells (primary …); assay: flow cytometry on cynomolgus PBMCs, overnight 37 C, AF488 anti-human IgG
Experimental: (§2) Bound anti-CD45 antibody was detected with fluorescently labeled AF488 anti-human IgG secondary antibody using flow cytometry. IC50s were determined by fitting the data using GraphPad Prism.

[6] = target: T1, human CD45 on live cells (REH-1 cells, …); assay: flow cytometry on human PBMCs, overnight 37 C, AF488 anti-human IgG; remark: listed apart in the source
Experimental: as §2

[7] = target: T1, human CD45 on live cells (REH-1 cells, …); assay: flow cytometry on REH-1 cells, overnight 37 C, AF488 anti-human IgG
Experimental: as §2

[8] = target: T2, cynomolgus CD45 on live cells (primary …); assay: flow cytometry on cynomolgus PBMCs, overnight 37 C, AF488 anti-human IgG
Experimental: as §1

[9] = target: T2, cynomolgus CD45 on live cells (primary …); assay: flow cytometry on PBMCs; cyno EC50 against human EC50
Experimental: (§3) To this end, primary human or cynomolgus (cyno) peripheral blood mononuclear cells (PBMCs) in cell culture media were incubated with titrated doses of the anti-CD45 antibodies overnight at 37° C. […] Bound anti-CD45 antibody was detected with fluorescently labeled AF488 anti-human IgG secondary antibody using flow cytometry. IC50s were determined by fitting the data using [sequence] […] An Isotype IgG was used as a control.

[10] = target: T1, human CD45 on live cells (REH-1 cells, …); assay: flow cytometry on human PBMCs, overnight 37 C, AF488 anti-human IgG; remark: listed apart in the source
Experimental: as §3

[11] = target: T3, purified human CD45 ectodomain (human …); assay: BLI (Octet Red96), antibody on anti-human Fc sensor, 100 nM human CD45 ectodomain, 1:1 fit
Experimental: (§4) Briefly, antibody binding studies were performed at 25° C. in 1× PBS supplemented with 0.1% w/v bovine serum albumin with a PALL FORTEBIO OCTET RED96 using biolayer interferometry (BLI).
(§5) The apparent monovalent affinity (KD), apparent association rate (KON), and apparent dissociation rate (KDIS or KOFF) were determined by local full fitting with a 1:1 binding model as calculated by FORTEBIO data analysis software version 10.

[12] = target: T1, human CD45 on live cells (REH-1 cells, …); assay: flow cytometry on human PBMCs, overnight 37 C, AF488 anti-human IgG; remark: listed apart in the source
Experimental: as §1

[13] = target: T2, cynomolgus CD45 on live cells (primary …); assay: flow cytometry on PBMCs; cyno EC50 against human EC50
Experimental: as §1

[14] = target: T3, purified human CD45 ectodomain (human …); assay: BLI (Octet Red96), Table 11; the sentence does not name the species of CD45
Experimental: as §4, §5

[15] = target: T2, cynomolgus CD45 on live cells (primary …); assay: flow cytometry on cynomolgus PBMCs, overnight 37 C, AF488 anti-human IgG
Experimental: as §3

Row | Binder | EC50 [1] [nM] | EC50 [2] [nM] | Cyno/Human Ratio (EC50) [3] [ratio] | EC50 [5] [nM] | EC50 [6] [nM] | EC50 [7] [nM] | also measured
1 | B1 | 2.2 | 2.9 | 1.36 |  |  |  | 
2 | B2 |  |  |  |  |  |  | koff [4]: 0.0499 s⁻¹; kon [4]: 458000 M⁻¹ s⁻¹
3 | B3 |  |  |  | 1.3 | 1.4 | 0.3 | 
4 | B4 |  |  |  | 1.3 | 1 | 0.2 | 
5 | B5 |  |  |  |  |  |  | EC50 [8]: 1.34 nM; Fold Cyno vs Human (EC50) [9]: 1.7 fold; EC50 [10]: 0.51 nM; Kd [11]: 2.93 nM; koff [11]: 0.000149 s⁻¹; kon [11]: 50800 M⁻¹ s⁻¹; EC50 [12]: 0.64 nM; Fold Cyno v/s Human (EC50) [13]: 2.1 fold; fold improved affinity over the parent clone C [14]: > 4 fold; EC50 [15]: 0.88 nM
6 | B6 | 2.2 | 3.3 | 1.49 |  |  |  | 
